Like-named read-outs stand apart in the source and are kept apart here. Numbered stars: 1 amine (or outer) side, 2 acyl side, 3 side chain; on linkers, the order of the positions; unused ones are H or OH. Bridge positions count the residues as written; N and C are the ends. Square brackets hold non-standard residues; d marks the D form. Ends that are not written are not given here. Phe(4-guanidino) = N=C(N)Nc1ccc(C[C@H](N)C(=O)O)cc1; TBMB = c1c(C[*:1])cc(C[*:3])cc1C[*:2]; NMeR = CN[C@@H](CCCNC(=N)N)C(=O)O; hArg = N=C(N)NCCCC[C@H](N)C(=O)O; NMeS = CN[C@@H](CO)C(=O)O; Aze = O=C(O)[C@@H]1CCN1; Abu = CC[C@H](N)C(=O)O; Sar = CNCC(=O)O
Columns and labels:
human plasma Kallikrein [1] = target: T1, human plasma Kallikrein (human, UniProt P03952 20-638, limits assumed); experiment: enzyme inhibition assay
T1 construct: also called hPK; human PK
T1 sequence (P03952 20-638 limits assumed): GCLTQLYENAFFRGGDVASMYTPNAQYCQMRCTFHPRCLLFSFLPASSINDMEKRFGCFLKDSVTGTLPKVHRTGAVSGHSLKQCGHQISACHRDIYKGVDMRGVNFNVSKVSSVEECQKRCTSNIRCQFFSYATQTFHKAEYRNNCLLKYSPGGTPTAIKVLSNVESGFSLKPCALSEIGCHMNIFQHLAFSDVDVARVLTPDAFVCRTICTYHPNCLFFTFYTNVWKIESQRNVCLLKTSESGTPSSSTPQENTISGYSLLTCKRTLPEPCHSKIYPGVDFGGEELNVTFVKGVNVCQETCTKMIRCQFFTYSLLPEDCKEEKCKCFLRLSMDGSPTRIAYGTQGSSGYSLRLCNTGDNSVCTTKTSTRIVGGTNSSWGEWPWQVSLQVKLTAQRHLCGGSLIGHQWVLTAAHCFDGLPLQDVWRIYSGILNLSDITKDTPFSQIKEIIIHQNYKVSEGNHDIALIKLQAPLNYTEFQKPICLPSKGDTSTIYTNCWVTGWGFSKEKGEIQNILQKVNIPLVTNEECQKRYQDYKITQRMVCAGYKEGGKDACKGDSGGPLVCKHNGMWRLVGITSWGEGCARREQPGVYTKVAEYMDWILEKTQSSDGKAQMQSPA

human plasma Kallikrein [2] = target: T1, human plasma Kallikrein; experiment: enzyme inhibition assay; remark: listed apart in the source
human plasma Kallikrein [3] = target: T1, human plasma Kallikrein; experiment: enzyme inhibition assay; remark: listed apart in the source
human plasma Kallikrein [4] = target: T1, human plasma Kallikrein; experiment: enzyme inhibition assay; remark: listed apart in the source
human plasma Kallikrein [5] = target: T1, human plasma Kallikrein; experiment: enzyme inhibition assay; remark: listed apart in the source
Rat plasma Kallikrein [6] = target: T2, Rat plasma Kallikrein (rat, UniProt P14272 391-638, limits assumed); experiment: enzyme inhibition assay; values relative, not absolute
T2 construct: domain: catalytic domain; also called rPK; rat PK
T2 sequence (P14272 391-638 limits assumed): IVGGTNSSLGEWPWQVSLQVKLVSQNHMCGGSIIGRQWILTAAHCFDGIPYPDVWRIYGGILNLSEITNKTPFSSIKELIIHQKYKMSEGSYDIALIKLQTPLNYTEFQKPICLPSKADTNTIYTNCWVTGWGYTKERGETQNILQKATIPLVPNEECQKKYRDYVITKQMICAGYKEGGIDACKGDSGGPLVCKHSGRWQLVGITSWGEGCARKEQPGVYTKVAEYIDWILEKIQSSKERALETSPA

human plasma Kallikrein [7] = target: T1, human plasma Kallikrein; experiment: enzyme inhibition assay; remark: listed apart in the source
Monkey plasma Kallikrein = target: T3, Monkey plasma Kallikrein (monkey (Macaca mulatta), UniProt A0A1D5Q7U7 391-638); experiment: enzyme inhibition assay
T3 construct: domain: catalytic domain; also called mPK
T3 sequence (A0A1D5Q7U7 entry or part of it): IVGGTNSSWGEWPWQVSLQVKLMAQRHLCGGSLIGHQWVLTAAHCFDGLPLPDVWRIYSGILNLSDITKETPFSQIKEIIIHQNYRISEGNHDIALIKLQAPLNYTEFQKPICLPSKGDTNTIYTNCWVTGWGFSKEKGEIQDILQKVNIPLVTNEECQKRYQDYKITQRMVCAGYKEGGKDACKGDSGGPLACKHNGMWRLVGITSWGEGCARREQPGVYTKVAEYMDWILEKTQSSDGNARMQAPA

Rat plasma Kallikrein [8] = target: T2, Rat plasma Kallikrein; experiment: enzyme inhibition assay
Human factor XIa = target: T4, Human factor XIa (human, UniProt P03951 19-625); experiment: enzyme inhibition assay
T4 construct: also called hfXIa

human plasma Kallikrein [9] = target: T1, human plasma Kallikrein; experiment: enzyme inhibition assay; remark: listed apart in the source
Rat plasma Kallikrein [10] = target: T2, Rat plasma Kallikrein; experiment: enzyme inhibition assay; remark: listed apart in the source
human plasma Kallikrein [11] = target: T1, human plasma Kallikrein; experiment: enzyme inhibition assay; remark: listed apart in the source
Human plasmin = Human plasmin (human, UniProt P00747 97-810); experiment: enzyme inhibition assay
Human plasmin, sequence (P00747 97-810 limits assumed): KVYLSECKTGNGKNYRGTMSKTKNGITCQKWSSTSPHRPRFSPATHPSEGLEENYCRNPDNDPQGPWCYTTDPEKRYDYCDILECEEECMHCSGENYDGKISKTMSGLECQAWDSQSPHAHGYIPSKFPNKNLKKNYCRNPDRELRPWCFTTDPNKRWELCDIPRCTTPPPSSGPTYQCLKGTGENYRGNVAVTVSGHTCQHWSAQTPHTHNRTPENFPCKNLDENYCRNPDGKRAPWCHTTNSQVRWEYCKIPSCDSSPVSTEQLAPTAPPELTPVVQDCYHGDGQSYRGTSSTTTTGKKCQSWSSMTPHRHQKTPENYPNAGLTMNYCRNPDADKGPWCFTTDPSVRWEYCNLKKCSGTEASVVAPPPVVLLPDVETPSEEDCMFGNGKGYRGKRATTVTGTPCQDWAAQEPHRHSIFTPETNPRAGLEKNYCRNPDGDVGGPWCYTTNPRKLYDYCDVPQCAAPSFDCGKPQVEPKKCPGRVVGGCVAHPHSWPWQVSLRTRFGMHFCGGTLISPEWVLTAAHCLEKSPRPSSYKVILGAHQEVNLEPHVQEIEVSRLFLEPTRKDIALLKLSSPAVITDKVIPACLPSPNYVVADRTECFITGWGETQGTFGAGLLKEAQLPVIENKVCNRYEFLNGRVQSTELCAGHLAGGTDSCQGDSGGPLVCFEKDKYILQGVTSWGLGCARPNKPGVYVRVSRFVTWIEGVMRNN

human plasma Kallikrein [12] = target: T1, human plasma Kallikrein; experiment: enzyme inhibition assay; remark: listed apart in the source
human plasma Kallikrein [13] = target: T1, human plasma Kallikrein; experiment: enzyme inhibition assay; remark: listed apart in the source
human plasma Kallikrein [14] = target: T1, human plasma Kallikrein; experiment: enzyme inhibition assay; remark: listed apart in the source
human plasma Kallikrein [15] = target: T1, human plasma Kallikrein; experiment: enzyme inhibition assay; remark: listed apart in the source
human plasma Kallikrein [16] = target: T1, human plasma Kallikrein; experiment: enzyme inhibition assay; remark: listed apart in the source
human plasma Kallikrein [17] = target: T1, human plasma Kallikrein; experiment: enzyme inhibition assay; remark: listed apart in the source
human plasma Kallikrein [18] = target: T1, human plasma Kallikrein; experiment: enzyme inhibition assay; remark: listed apart in the source
human plasma Kallikrein [19] = target: T1, human plasma Kallikrein; experiment: enzyme inhibition assay; remark: listed apart in the source
human plasma Kallikrein [20] = target: T1, human plasma Kallikrein; experiment: enzyme inhibition assay; remark: listed apart in the source
human plasma Kallikrein [21] = target: T1, human plasma Kallikrein; experiment: enzyme inhibition assay; remark: listed apart in the source
Rat plasma Kallikrein [22] = target: T2, Rat plasma Kallikrein; experiment: enzyme inhibition assay; values relative, not absolute; remark: listed apart in the source

B1: 06-34-18 -N-MeSer1 (peptide)
peptide: AC[NMeS]WPARCLHQDLCA
modifications: linker 2-8-14 via TBMB; not fully specified (N-terminus, C-terminus)
- fold loss in potency against the parent (human plasma Kallikrein [1]): 10 fold
- Ki (human plasma Kallikrein [2]): 0.56 nM

B2: Ac-(06-34-18) Aze3 Aba4 NMeArg5 (peptide)
peptide: Ac-CSW[Aze][Abu][NMeR]CLHQDLC-NH2
modifications: linker 1-7-13 via TBMB
- Ki (human plasma Kallikrein [3]): 2.8 nM

B3: 06-34-03 - N-MeGly1,6 (peptide)
peptide: AC[Sar]WPARC[Sar]HQDLCA
modifications: linker 2-8-14 via TBMB; not fully specified (N-terminus, C-terminus)
notes: also called AC N-MeGWPARCN-MeGHQDLCA
- Ki (human plasma Kallikrein [2]): 24.8 nM

B4: Ac-(06-34-18) 4GuanPhe5 (peptide)
peptide: Ac-CSWPA[Phe(4-guanidino)]CLHQDLC-NH2
modifications: linker 1-7-13 via TBMB
SMILES: CC(=O)N[C@H]1CSCc2cc3cc(c2)CSC[C@H](NC(=O)[C@H](Cc2ccc(NC(=N)N)cc2)NC(=O)[C@H](C)NC(=O)[C@@H]2CCCN2C(=O)[C@H](Cc2c[nH]c4ccccc24)NC(=O)[C@H](CO)NC1=O)C(=O)N[C@@H](CC(C)C)C(=O)N[C@@H](Cc1c[nH]cn1)C(=O)N[C@@H](CCC(N)=O)C(=O)N[C@@H](CC(=O)O)C(=O)N[C@@H](CC(C)C)C(=O)N[C@H](C(N)=O)CSC3
- Ki (human plasma Kallikrein [4]): 0.3 nM
- Ki (human plasma Kallikrein [5]): 0.34 nM
- IC50 (Rat plasma Kallikrein [6]): 21 nM

B5: Ac-(06-34-18) Aze3 Aba4 4GuanPhe5 (peptide)
peptide: Ac-CSW[Aze][Abu][Phe(4-guanidino)]CLHQDLC-NH2
modifications: linker 1-7-13 via TBMB
- Ki (human plasma Kallikrein [3]): 0.2 nM

B6: Ac-(06-34-18) HomoArg5 (peptide)
peptide: Ac-CSWPA[hArg]CLHQDLC-NH2
modifications: linker 1-7-13 via TBMB
- IC50 (Rat plasma Kallikrein [6]): 64 nM

B7: PK15 (peptide)
peptide: H-ACSDRFRNCPADEALCG-NH2
modifications: linker 2-9-16 via TBMB
notes: 6x6 bicyclic peptide
- Ki (human plasma Kallikrein [7]): 3 nM
- Ki (Monkey plasma Kallikrein): 4 nM
- Ki (Rat plasma Kallikrein [8]): 941 nM
- Ki (Human factor XIa): 75000 nM

B8: 06-34-18 (01 + 05) (peptide)
peptide: ACSWPARCLHQDLCA
modifications: linker 2-8-14 via TBMB; not fully specified (N-terminus, C-terminus)
- IC50 (human plasma Kallikrein [9]): 0.07 nM
- IC50 (Rat plasma Kallikrein [10]): 0.56 nM
- Ki (human plasma Kallikrein [2]): 0.04 nM

B9: 3B8 (peptide)
peptide: ACFKHCRVACA
modifications: linker 2-6-10 via TBMB
notes: also called PK123
- Ki (human plasma Kallikrein [7]): 7 nM
- Ki (Monkey plasma Kallikrein): 9 nM
- Ki (Rat plasma Kallikrein [8]): 12 nM
- Ki (Human factor XIa): 52 nM
- Ki (human plasma Kallikrein [11]): 0.95 nM

B10: 2A10 (peptide)
peptide: ACTYPYKCLHQNLCA
modifications: linker 2-8-14 via TBMB
notes: also called PK112
- Ki (human plasma Kallikrein [7]): 18 nM
- Ki (Monkey plasma Kallikrein): 23 nM
- Ki (Rat plasma Kallikrein [8]): 66 nM
- Ki (Human plasmin): 30000 nM
- Ki (human plasma Kallikrein [12]): 4.98 nM

B11: Ac-06-34-18(TMB)-NH2 (peptide)
peptide: Ac-CSWPARCLHQDLC-NH2
modifications: linker 1-7-13 via TBMB
SMILES: CC(=O)N[C@H]1CSCc2cc3cc(c2)CSC[C@H](NC(=O)[C@H](CCCNC(=N)N)NC(=O)[C@H](C)NC(=O)[C@@H]2CCCN2C(=O)[C@H](Cc2c[nH]c4ccccc24)NC(=O)[C@H](CO)NC1=O)C(=O)N[C@@H](CC(C)C)C(=O)N[C@@H](Cc1c[nH]cn1)C(=O)N[C@@H](CCC(N)=O)C(=O)N[C@@H](CC(=O)O)C(=O)N[C@@H](CC(C)C)C(=O)N[C@H](C(N)=O)CSC3
notes: also called Ac-(06-34-18) wildtype; Ac-(06-34-18) WPAR
- Ki (human plasma Kallikrein [13]): 0.17 nM
- Ki (human plasma Kallikrein [14]): 0.17 nM
- Ki (human plasma Kallikrein [15]): 0.17 nM
- Ki (human plasma Kallikrein [4]): 0.17 nM
- Ki (human plasma Kallikrein [16]): 0.17 nM
- Ki (human plasma Kallikrein [17]): 0.17 nM
- Ki (human plasma Kallikrein [18]): 0.17 nM
- Ki (human plasma Kallikrein [5]): 0.17 nM
- Ki (human plasma Kallikrein [3]): 0.17 nM
- Ki (human plasma Kallikrein [19]): 0.17 nM
- IC50 (Rat plasma Kallikrein [6]): 1.7 nM

B12: Ac-06-34-18(TMB)-NH2 Phe2Tyr4 (peptide)
peptide: Ac-CSFPYRCLHQDLC-NH2
modifications: linker 1-7-13 via TBMB
SMILES: CC(=O)N[C@H]1CSCc2cc3cc(c2)CSC[C@H](NC(=O)[C@H](CCCNC(=N)N)NC(=O)[C@H](Cc2ccc(O)cc2)NC(=O)[C@@H]2CCCN2C(=O)[C@H](Cc2ccccc2)NC(=O)[C@H](CO)NC1=O)C(=O)N[C@@H](CC(C)C)C(=O)N[C@@H](Cc1c[nH]cn1)C(=O)N[C@@H](CCC(N)=O)C(=O)N[C@@H](CC(=O)O)C(=O)N[C@@H](CC(C)C)C(=O)N[C@H](C(N)=O)CSC3
notes: also called Ac-(06-34-18) FPYR; Ac-(06-34-18) Phe2 Tyr4
- Ki (human plasma Kallikrein [19]): 0.46 nM
- Ki (human plasma Kallikrein [20]): 0.46 nM
- Ki (human plasma Kallikrein [21]): 0.46 nM
- IC50 (Rat plasma Kallikrein [22]): 13.8 nM

B13: Ac-(06-34-18) Phe2 Tyr4 4GuanPhe5 (peptide)
peptide: Ac-CSFPY[Phe(4-guanidino)]CLHQDLC-NH2
modifications: linker 1-7-13 via TBMB
SMILES: CC(=O)N[C@H]1CSCc2cc3cc(c2)CSC[C@H](NC(=O)[C@H](Cc2ccc(NC(=N)N)cc2)NC(=O)[C@H](Cc2ccc(O)cc2)NC(=O)[C@@H]2CCCN2C(=O)[C@H](Cc2ccccc2)NC(=O)[C@H](CO)NC1=O)C(=O)N[C@@H](CC(C)C)C(=O)N[C@@H](Cc1c[nH]cn1)C(=O)N[C@@H](CCC(N)=O)C(=O)N[C@@H](CC(=O)O)C(=O)N[C@@H](CC(C)C)C(=O)N[C@H](C(N)=O)CSC3
- Ki (human plasma Kallikrein [21]): 0.4 nM
- IC50 (Rat plasma Kallikrein [22]): 2.5 nM

B14: Ac-(06-34-18) Phe2 Tyr4 HomoArg5 (peptide)
peptide: Ac-CSFPY[hArg]CLHQDLC-NH2
modifications: linker 1-7-13 via TBMB
SMILES: CC(=O)N[C@H]1CSCc2cc3cc(c2)CSC[C@H](NC(=O)[C@H](CCCCNC(=N)N)NC(=O)[C@H](Cc2ccc(O)cc2)NC(=O)[C@@H]2CCCN2C(=O)[C@H](Cc2ccccc2)NC(=O)[C@H](CO)NC1=O)C(=O)N[C@@H](CC(C)C)C(=O)N[C@@H](Cc1c[nH]cn1)C(=O)N[C@@H](CCC(N)=O)C(=O)N[C@@H](CC(=O)O)C(=O)N[C@@H](CC(C)C)C(=O)N[C@H](C(N)=O)CSC3
- Ki (human plasma Kallikrein [21]): 0.77 nM
- IC50 (Rat plasma Kallikrein [22]): 19.7 nM

B15: Ac-(06-34-18) Phe2 Tyr4 NMeArg5 (peptide)
peptide: Ac-CSFPY[NMeR]CLHQDLC-NH2
modifications: linker 1-7-13 via TBMB
SMILES: CC(=O)N[C@H]1CSCc2cc3cc(c2)CSC[C@H](NC(=O)[C@H](CCCNC(=N)N)N(C)C(=O)[C@H](Cc2ccc(O)cc2)NC(=O)[C@@H]2CCCN2C(=O)[C@H](Cc2ccccc2)NC(=O)[C@H](CO)NC1=O)C(=O)N[C@@H](CC(C)C)C(=O)N[C@@H](Cc1c[nH]cn1)C(=O)N[C@@H](CCC(N)=O)C(=O)N[C@@H](CC(=O)O)C(=O)N[C@@H](CC(C)C)C(=O)N[C@H](C(N)=O)CSC3
- Ki (human plasma Kallikrein [21]): 3.56 nM
- IC50 (Rat plasma Kallikrein [22]): 60.2 nM

B16: 06-54 (2A2) (peptide)
peptide: ACRWPARCTHQNYCA
modifications: linker 2-8-14 via TBMB; not fully specified (N-terminus, C-terminus)
notes: also called PK106
- Ki (human plasma Kallikrein [7]): 5 nM
- Ki (Monkey plasma Kallikrein): 6 nM
- Ki (Rat plasma Kallikrein [8]): 7 nM
- Ki (human plasma Kallikrein [12]): 0.49 nM

B17: Ac-(06-34-18) NMeArg5 (peptide)
peptide: Ac-CSWPA[NMeR]CLHQDLC-NH2
modifications: linker 1-7-13 via TBMB
SMILES: CC(=O)N[C@H]1CSCc2cc3cc(c2)CSC[C@H](NC(=O)[C@H](CCCNC(=N)N)N(C)C(=O)[C@H](C)NC(=O)[C@@H]2CCCN2C(=O)[C@H](Cc2c[nH]c4ccccc24)NC(=O)[C@H](CO)NC1=O)C(=O)N[C@@H](CC(C)C)C(=O)N[C@@H](Cc1c[nH]cn1)C(=O)N[C@@H](CCC(N)=O)C(=O)N[C@@H](CC(=O)O)C(=O)N[C@@H](CC(C)C)C(=O)N[C@H](C(N)=O)CSC3
- fold reduction in affinity against wildtype peptide (human plasma Kallikrein [1]): 20 fold
- Ki (human plasma Kallikrein [15]): 3.5 nM
- Ki (human plasma Kallikrein [5]): 3.5 nM
- IC50 (Rat plasma Kallikrein [6]): 98 nM

B18: 06-34-03 - Ala1,6 (peptide)
peptide: ACAWPARCAHQDLCA
modifications: linker 2-8-14 via TBMB; not fully specified (N-terminus, C-terminus)
notes: also called R1A/V6A
- Ki (human plasma Kallikrein [2]): 0.147 nM

B19: Ac-(06-34-18) Aze3 Aba4 HomoArg5 (peptide)
peptide: Ac-CSW[Aze][Abu][hArg]CLHQDLC-NH2
modifications: linker 1-7-13 via TBMB
- Ki (human plasma Kallikrein [3]): 0.9 nM

B20: 3B3 (peptide)
peptide: ACFKACRVNCA
modifications: linker 2-6-10 via TBMB
notes: also called PK117
- Ki (Monkey plasma Kallikrein): 11 nM
- Ki (Rat plasma Kallikrein [8]): 24 nM
- Ki (Human factor XIa): 57 nM

— patent US10800813 (Bicycle, dated 2020)
